According to IntAct's records for PubMed 23813973:

Target: dnm1l_human DNM1L (UniProt O00429)
Sequence (O00429 whole entry): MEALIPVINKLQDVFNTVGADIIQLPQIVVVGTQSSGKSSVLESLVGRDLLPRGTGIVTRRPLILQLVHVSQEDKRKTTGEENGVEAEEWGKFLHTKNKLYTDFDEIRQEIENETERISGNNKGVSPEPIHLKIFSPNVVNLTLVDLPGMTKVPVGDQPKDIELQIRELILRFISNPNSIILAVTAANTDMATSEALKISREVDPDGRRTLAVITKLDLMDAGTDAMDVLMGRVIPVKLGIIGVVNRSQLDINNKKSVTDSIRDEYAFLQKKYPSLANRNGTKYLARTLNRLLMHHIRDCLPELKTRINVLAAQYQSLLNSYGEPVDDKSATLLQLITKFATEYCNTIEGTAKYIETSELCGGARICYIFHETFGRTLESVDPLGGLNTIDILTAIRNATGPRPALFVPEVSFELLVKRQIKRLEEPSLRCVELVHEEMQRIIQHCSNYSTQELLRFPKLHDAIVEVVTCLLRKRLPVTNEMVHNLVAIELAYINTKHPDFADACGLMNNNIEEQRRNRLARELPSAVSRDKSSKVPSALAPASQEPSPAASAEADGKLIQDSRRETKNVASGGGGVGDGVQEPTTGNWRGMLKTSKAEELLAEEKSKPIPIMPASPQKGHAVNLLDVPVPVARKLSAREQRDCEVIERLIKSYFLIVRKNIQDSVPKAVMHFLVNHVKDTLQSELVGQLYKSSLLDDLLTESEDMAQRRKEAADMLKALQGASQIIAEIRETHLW

effect of a mutation on the interaction: decreasing interaction
Substance: Leucine-rich repeat serine/threonine-protein kinase 2 (Homo sapiens), Q5S007 K1906A;D1994A;D2017A
